Measured values as given in paper PMC7597677.

Molecular target: cGMP phosphodiesterase 6 (PDE6) hetero-tetramer, native bovine (bovine) (UniProt P11541)
Test: cryo-EM structure

UniProt P11541, sequence (P11541 whole entry, chain 1 of 3): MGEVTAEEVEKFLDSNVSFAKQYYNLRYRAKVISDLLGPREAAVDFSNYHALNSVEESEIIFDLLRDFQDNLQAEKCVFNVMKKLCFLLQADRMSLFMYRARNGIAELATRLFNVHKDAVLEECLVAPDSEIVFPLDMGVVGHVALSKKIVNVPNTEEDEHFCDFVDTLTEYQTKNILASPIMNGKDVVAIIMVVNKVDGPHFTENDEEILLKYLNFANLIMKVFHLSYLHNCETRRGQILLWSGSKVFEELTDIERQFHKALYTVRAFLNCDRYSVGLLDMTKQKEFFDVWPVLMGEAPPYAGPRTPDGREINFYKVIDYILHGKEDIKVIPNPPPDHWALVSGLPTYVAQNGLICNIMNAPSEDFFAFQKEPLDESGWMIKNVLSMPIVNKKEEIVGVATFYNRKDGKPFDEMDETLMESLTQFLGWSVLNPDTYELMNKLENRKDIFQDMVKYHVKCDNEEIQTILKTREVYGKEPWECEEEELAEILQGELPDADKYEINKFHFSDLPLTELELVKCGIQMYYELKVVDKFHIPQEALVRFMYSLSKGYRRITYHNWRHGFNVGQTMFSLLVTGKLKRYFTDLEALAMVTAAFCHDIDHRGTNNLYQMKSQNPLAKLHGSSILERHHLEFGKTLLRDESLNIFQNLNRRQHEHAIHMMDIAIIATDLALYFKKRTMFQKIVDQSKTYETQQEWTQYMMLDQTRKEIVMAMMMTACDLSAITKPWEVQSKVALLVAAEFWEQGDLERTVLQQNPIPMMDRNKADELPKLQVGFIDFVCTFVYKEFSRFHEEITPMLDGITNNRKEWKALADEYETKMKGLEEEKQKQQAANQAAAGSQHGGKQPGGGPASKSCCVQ
UniProt P11541, sequence (P23439 whole entry, chain 2 of 3, further chain): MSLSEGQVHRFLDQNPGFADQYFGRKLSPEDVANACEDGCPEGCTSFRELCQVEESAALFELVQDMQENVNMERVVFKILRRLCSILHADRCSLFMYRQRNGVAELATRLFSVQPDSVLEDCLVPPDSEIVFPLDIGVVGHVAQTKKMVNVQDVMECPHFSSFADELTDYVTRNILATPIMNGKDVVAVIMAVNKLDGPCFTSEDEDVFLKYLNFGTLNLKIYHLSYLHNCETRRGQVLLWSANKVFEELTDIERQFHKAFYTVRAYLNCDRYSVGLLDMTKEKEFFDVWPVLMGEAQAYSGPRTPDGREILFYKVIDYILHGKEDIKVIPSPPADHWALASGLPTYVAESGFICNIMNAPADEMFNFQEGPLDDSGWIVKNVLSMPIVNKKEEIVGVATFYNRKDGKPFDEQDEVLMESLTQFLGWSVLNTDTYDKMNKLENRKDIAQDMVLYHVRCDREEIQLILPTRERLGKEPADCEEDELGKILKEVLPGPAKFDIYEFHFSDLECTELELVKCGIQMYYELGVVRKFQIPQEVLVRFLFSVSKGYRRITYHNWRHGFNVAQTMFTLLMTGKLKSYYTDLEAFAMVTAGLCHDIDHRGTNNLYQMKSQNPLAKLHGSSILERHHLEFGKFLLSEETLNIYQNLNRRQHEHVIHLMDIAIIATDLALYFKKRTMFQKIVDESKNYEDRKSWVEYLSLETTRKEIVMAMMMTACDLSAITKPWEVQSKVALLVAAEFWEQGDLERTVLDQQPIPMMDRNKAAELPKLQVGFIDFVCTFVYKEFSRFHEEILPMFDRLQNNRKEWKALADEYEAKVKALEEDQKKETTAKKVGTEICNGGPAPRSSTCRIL
UniProt P11541, sequence (P04972 whole entry, chain 3 of 3, further chain): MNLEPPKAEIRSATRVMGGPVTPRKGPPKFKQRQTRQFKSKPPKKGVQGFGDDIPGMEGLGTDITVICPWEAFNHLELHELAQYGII

stoichiometry N (GαT·GTP per PDE6 hetero-tetramer): 2
Substance: 1D4-tagged recombinant GαT subunit (R174C, Q200L), GTP-bound (from UniProt P04695 1-350) (natural protein)
